These results are taken from PMC10993188, “RAD51 separation of function mutation disables replication fork maintenance but preserves DSB repair”.

Series [1] has as its target T1, RAD51 S181P (SP) (Homo sapiens, UniProt Q06609 1-339, S181P). In words: BLI; 2 mM ATP, 5 mM Mg2+; 2 uM RAD51; dissociated by GST-BRC4; EMSA: 10 mM Tris-HCl pH 7.5, 10 mM KCl, 1 mM MgCl2, 1 mM ATP, 1 mM DTT, 25 C, 25 nM DNA, 1.1 uM RAD51; BLI: 50 mM Tris-HCl pH 7.5, 50 mM KCl, 5 mM MgCl2, 2 mM ATP, 0.05% Tween 20, 15 nM DNA; stopped-flow buffer not in material. The following applies: protein: recombinant; chain copies: 10; label: 3' biotin; single strand.

In series [2] the target is T2, RAD51 WT (Homo sapiens, UniProt Q06609 1-339). The description is as above. The following applies: protein: recombinant; chain copies: 10; label: 3' biotin; single strand.
T2 sequence (Q06609 whole entry): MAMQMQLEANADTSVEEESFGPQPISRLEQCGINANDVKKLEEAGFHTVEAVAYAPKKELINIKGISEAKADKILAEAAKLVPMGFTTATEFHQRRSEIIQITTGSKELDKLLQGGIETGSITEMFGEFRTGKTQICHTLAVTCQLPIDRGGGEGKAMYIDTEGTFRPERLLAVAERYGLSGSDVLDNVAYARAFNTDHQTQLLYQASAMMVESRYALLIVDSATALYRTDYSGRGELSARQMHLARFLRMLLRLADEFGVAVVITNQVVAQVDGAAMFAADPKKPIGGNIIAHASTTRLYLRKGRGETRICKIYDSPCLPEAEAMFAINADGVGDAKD
Series [3] deals with T2, RAD51 WT. In words: EMSA; 1 mM ATP, 1 mM Mg2+; no Ex27; complex disassembled by GST-BRC3; EMSA: 10 mM Tris-HCl pH 7.5, 10 mM KCl, 1 mM MgCl2, 1 mM ATP, 1 mM DTT, 25 C, 25 nM DNA, 1.1 uM RAD51; BLI: 50 mM Tris-HCl pH 7.5, 50 mM KCl, 5 mM MgCl2, 2 mM ATP, 0.05% Tween 20, 15 nM DNA; stopped-flow buffer not in material. The following applies: protein: recombinant; chain copies: 10; label: 5' FAM (FITC); single strand.

Series [4] has as its target T3, RAD51 WT;BRCA2 Ex27 peptide (TR2) (Homo sapiens;Homo sapiens, UniProt Q06609;P51587 1-339;, |). Briefly: EMSA super-shift; 5.7 uM Ex27, 1 mM ATP, 1 mM Mg2+; almost completely resistant to GST-BRC3; EMSA: 10 mM Tris-HCl pH 7.5, 10 mM KCl, 1 mM MgCl2, 1 mM ATP, 1 mM DTT, 25 C, 25 nM DNA, 1.1 uM RAD51; BLI: 50 mM Tris-HCl pH 7.5, 50 mM KCl, 5 mM MgCl2, 2 mM ATP, 0.05% Tween 20, 15 nM DNA; stopped-flow buffer not in material. The note with it: tags: ;; label: 5' FAM (FITC); single strand.

The target in series [5] is T2, RAD51 WT. In words: stopped-flow PIFE; no Ex27; EMSA: 10 mM Tris-HCl pH 7.5, 10 mM KCl, 1 mM MgCl2, 1 mM ATP, 1 mM DTT, 25 C, 25 nM DNA, 1.1 uM RAD51; BLI: 50 mM Tris-HCl pH 7.5, 50 mM KCl, 5 mM MgCl2, 2 mM ATP, 0.05% Tween 20, 15 nM DNA; stopped-flow buffer not in material. The following applies: protein: recombinant; chain copies: 10; label: 5' Cy3; single strand.
The target in series [6] is T3, RAD51 WT;BRCA2 Ex27 peptide (TR2). In words: stopped-flow PIFE; Ex27 increases amplitude and decreases binding rate; EMSA: 10 mM Tris-HCl pH 7.5, 10 mM KCl, 1 mM MgCl2, 1 mM ATP, 1 mM DTT, 25 C, 25 nM DNA, 1.1 uM RAD51; BLI: 50 mM Tris-HCl pH 7.5, 50 mM KCl, 5 mM MgCl2, 2 mM ATP, 0.05% Tween 20, 15 nM DNA; stopped-flow buffer not in material. The following applies: tags: ;; label: 5' Cy3; single strand.

Series [7] has as its target T1, RAD51 S181P (SP). Briefly: stopped-flow PIFE; no Ex27; similar mechanism to WT, slower assembly at suboptimal concentrations; EMSA: 10 mM Tris-HCl pH 7.5, 10 mM KCl, 1 mM MgCl2, 1 mM ATP, 1 mM DTT, 25 C, 25 nM DNA, 1.1 uM RAD51; BLI: 50 mM Tris-HCl pH 7.5, 50 mM KCl, 5 mM MgCl2, 2 mM ATP, 0.05% Tween 20, 15 nM DNA; stopped-flow buffer not in material. The following applies: protein: recombinant; chain copies: 10; label: 5' Cy3; single strand.

T1 sequence (Q06609 whole entry S181P): as the sequence (Q06609 whole entry) above, with S181P counted along it

As for TTTTTTTTTTTTTTTTTTTTTTTTTTTTTTTTTTTTTTTTTTT (ssDNA) [oligo-dT 43-mer], the binding result in series [1] and in series [2] was “binds” throughout.

B1: 5'FITC-90mer ssDNA (ssDNA)
DNA: AAATCAATCTAAAGTATATATGAGTAAACTTGGTCTGACAGTTACCAATGCTTAATCAGTGAGGCACCTATCTCAGCGATCTGTCTATTT
With B1, the binding result in series [3] and in series [4] was “binds” in each case.

B2: Cy3-(dT)79 (ssDNA)
DNA: TTTTTTTTTTTTTTTTTTTTTTTTTTTTTTTTTTTTTTTTTTTTTTTTTTTTTTTTTTTTTTTTTTTTTTTTTTTTTTT
Turning to B2, the binding result in series [5], in series [6] and in series [7] was “binds” in each case.
